What was measured:
Mt-DprE1 = biological target: T1, Mt-DprE1 (Mycobacterium tuberculosis, UniProt P9WJF1); assay: resazurin-based DprE1 enzyme assay with GGPR substrate; type: biochemical
T1 construct: N-terminal hexa-his tag

[1] = test system: CC(C)=CCC/C(C)=C/CC/C(C)=C/CC/C(C)=C/COP(=O)(O)O[C@@H]1O[C@H](CO)[C@@H](O)[C@H]1O; assay: purified protein; conditions: FAD
[2] = test system: NC(=O)C1=CN([C@@H]2O[C@H](COP(=O)(O)OP(=O)(O)OC[C@H]3O[C@@H](n4cnc5c(N)ncnc54)[C@H](O)[C@@H]3O)[C@@H](O)[C@H]2O)C=CC1; assay: purified protein; conditions: varied: cofactor
[3] = test system: NC(=O)C1=CN([C@@H]2O[C@H](COP(=O)(O)OP(=O)(O)OC[C@H]3O[C@@H](n4cnc5c(N)ncnc54)[C@H](OP(=O)(O)O)[C@@H]3O)[C@@H](O)[C@H]2O)C=CC1; assay: purified protein; conditions: varied: cofactor

T1 sequence (P9WJF1 whole entry): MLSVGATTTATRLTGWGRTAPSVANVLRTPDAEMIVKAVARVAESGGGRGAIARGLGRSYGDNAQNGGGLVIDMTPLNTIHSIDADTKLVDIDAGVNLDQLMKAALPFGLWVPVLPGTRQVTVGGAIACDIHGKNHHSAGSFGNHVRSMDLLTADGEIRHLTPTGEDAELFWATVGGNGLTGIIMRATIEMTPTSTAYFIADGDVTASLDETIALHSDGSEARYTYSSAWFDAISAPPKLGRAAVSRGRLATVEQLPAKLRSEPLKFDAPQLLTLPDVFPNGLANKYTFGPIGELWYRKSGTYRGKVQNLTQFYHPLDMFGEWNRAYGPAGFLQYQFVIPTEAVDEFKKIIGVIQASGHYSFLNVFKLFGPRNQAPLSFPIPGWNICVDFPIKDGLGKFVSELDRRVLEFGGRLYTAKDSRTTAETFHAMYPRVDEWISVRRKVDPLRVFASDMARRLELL

Work on BTZ yielded an IC50 (Mt-DprE1) of 5.7 ± 0.5 µM.

Work on “Mt-DprE1 (Mycobacterium tuberculosis H37Rv)” yielded a Km [1] of 36.9 ± 0.7 µM and a Vmax [1] of 35.8 µM/min.

Substance “Mt-DprE2 (Mycobacterium tuberculosis H37Rv)” has a Km [2] of 10.5 ± 5.6 µM, a Vmax [2] of 14.3 µM/min and a Km [3] of 34.6 ± 11.2 µM. For the same substance, the Vmax [3] was 11.2 µM/min.
